This note sets out measurements from FireProtDB (doi:10.1002/pro.5560060808).

The conditions of this series: Aspergillus oryzae (strain ATCC 42149 / RIB 40), Thermal, DSC, reversible: yes, whole UniProt chain shown.
The mark [1] stands for this setting: pH 4.5, Acetic acid-Sodium acetate 0.1 M.

B1: Guanyl-specific ribonuclease T1 wild type, P00651 (protein)
chain: MMYSKLLTLTTLLLPTALALPSLVERACDYTCGSNCYSSSDVSTAQAAGYQLHEDGETVGSNSYPHKYNNYEGFDFSVSSPYYEWPILSSGDVYSGGSPGADRVVFNENNQLAGVITHTGASGNNFVECT
Regarding B1, the Tm runs as follows: (pH 3, glycine-HCl 0.1 M) 52.4 °C; (pH 3.5, glycine-HCl 0.1 M) 54.7 °C; under setting [1], 59.2 °C; (pH 6, MES 0.1 M) 62.4 °C. Besides, the “heat capacity change of unfolding” value is, setting by setting: (pH 3, glycine-HCl 0.1 M) 1.2 kcal/mol/K; (pH 3.5, glycine-HCl 0.1 M) 1.44 kcal/mol/K; under setting [1], 1.17 kcal/mol/K; (pH 6, MES 0.1 M) 1.39 kcal/mol/K. Moreover, the “unfolding enthalpy (calorimetric)” value runs as follows: (pH 3, glycine-HCl 0.1 M) 99.3 kcal/mol; (pH 3.5, glycine-HCl 0.1 M) 103 kcal/mol; under setting [1], 109 kcal/mol; (pH 6, MES 0.1 M) 112 kcal/mol.
